Changes are numbered by the printed parent chain. In names and notes the source's numbering stands. Several values for one entry are separate records, joined by “and”; a condition that tells them apart may be missing. Identical values can stand only once. One block for each binder: values may come before it.
Experiments:
[1] = molecular target: T1, Heat shock factor 1 (Hsf1) wild-type (human), Q00613; test: SEC-MALS; without reductant (oxidative conditions); 50 uM injected; 25 mM HEPES/KOH pH 7.2, 150 mM KCl; Bio SEC-5 1000 A column; oligomer size from the median molar mass; conditions: remark: other sources report otherwise
T1 chain: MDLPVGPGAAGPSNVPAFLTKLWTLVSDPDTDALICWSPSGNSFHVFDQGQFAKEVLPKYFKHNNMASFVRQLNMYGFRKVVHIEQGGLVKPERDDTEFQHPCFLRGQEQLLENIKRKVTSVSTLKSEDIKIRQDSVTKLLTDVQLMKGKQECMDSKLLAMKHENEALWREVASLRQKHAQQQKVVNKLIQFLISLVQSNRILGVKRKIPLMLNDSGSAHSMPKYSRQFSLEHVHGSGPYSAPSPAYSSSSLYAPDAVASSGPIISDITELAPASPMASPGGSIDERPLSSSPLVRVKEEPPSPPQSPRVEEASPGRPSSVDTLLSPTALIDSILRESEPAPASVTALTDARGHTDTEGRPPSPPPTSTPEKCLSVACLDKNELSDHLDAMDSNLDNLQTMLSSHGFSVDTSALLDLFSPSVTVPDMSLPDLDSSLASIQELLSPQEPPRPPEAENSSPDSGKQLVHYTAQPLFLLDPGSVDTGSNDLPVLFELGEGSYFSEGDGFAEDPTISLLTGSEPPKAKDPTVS

[2] = molecular target: T1, Heat shock factor 1 (Hsf1) wild-type …; test: SEC-MALS; with 10 mM DTT (+ Reductant); 50 uM injected; 25 mM HEPES/KOH pH 7.2, 150 mM KCl; Bio SEC-5 1000 A column; oligomer size from the median molar mass; conditions: remark: other sources report otherwise
[3] = molecular target: the molecule itself; test: SEC-MALS; without reductant (oxidative conditions); 50 uM injected; 25 mM HEPES/KOH pH 7.2, 150 mM KCl; Bio SEC-5 1000 A column; oligomer size from the median molar mass
[4] = molecular target: the molecule itself; test: SEC; analytical SEC at varying protein concentrations; change of elution volume with decreasing concentration

stoichiometry N [1]: 9 mer and < 16 mer | stoichiometry N [2]: 7 mer
B1: Heat shock factor 1 (Hsf1) wild-type, Q00613 1-529 (natural protein)
chain: T1 chain

B2: Hsf1 CS5 mutant (C36S/C103S/C153S/C373S/C378S) (natural protein, human, UniProt Q00613 1-529, looked up)
chain: T1 chain with C36S, C103S, C153S, C373S, C378S
notes: Heat shock factor 1 (Hsf1), human, all five cysteines replaced with serine; also called Hsf1 CS mutant; source: E. coli BL21(DE3), purified (Ni-NTA, HRV3C cleavage, HiTrap Q anion exchange, Superdex 200 gel filtration); not shown: GB1, N-terminal, cleaved; His6, N-terminal, cleaved
stoichiometry N [3]: ~5 mer

B3: Hsf1 C153S mutant (natural protein, human, UniProt Q00613 1-529, looked up)
chain: T1 chain with C153S
notes: Heat shock factor 1 (Hsf1), human, C153S in the leucine-zipper domain LZ1-3; source: E. coli BL21(DE3), purified (Ni-NTA, HRV3C cleavage, HiTrap Q anion exchange, Superdex 200 gel filtration); not shown: GB1, N-terminal, cleaved; His6, N-terminal, cleaved
binding result [4]: binds
